Test results taken from the supplement of paper PMC12042874.
± gives the uncertainty stated by the source.

Assay: amyloid nucleation score (Sup35N fusion, yeast selection) (log enrichment); library NNK3; higher = more nucleation; inactive = no reads after selection
Summary of the method: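 Psi-negative yeast expressed Sup35N fused to peptides of 20 random codons. They were induced 24 hours with 100 μM copper sulfate, grown 7 days at 30°C without adenine and uracil, and their plasmid inserts from input and output were Illumina-sequenced. The nucleation score is the DiMSum log enrichment of output over input reads, centred on the mode score of non-aggregating sequences. Sequences with under 100 input reads were excluded.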

Substance | amyloid nucleation score
RQGCKVCRWLRSKSLLLRRM | inactive
IYRSIRQAVLCLGLSGS | inactive
NKVVAKHGFGVRSFKIWGLD | inactive
LSMCSLHRNTVFWFRISLMI | inactive
SFCWASKSVHRSRG | inactive
GTRNMKPLTKAETSRLG | 0.139 ± 0.45
RLMLLVTPAISFMSF | inactive
RDWCSNLMYYDYPVTEGCDT | inactive
MIYSTRSVFDFCGTFNTVVY | inactive
HEYECGWIGVVFTMILMSLS | inactive
RFSYSDTI | inactive
VYEGFQVWNDGLPDLVRFGV | inactive
SLGSCTMFSFSIFWISVQSV | 1.34 ± 0.084
VFYFDSFRICSYVVLYGHMA | 0.601 ± 0.28
YFVPWGFAKDRRKTHDLPAE | inactive
RYIFNQANSMVQYRFVYDVR | 1.72 ± 0.069
CCIKGHFPSSFGSWAKYLHV | inactive
FAFAEERADLWSN | inactive
PFRNMLGMNPNSQTLRVMVR | inactive
FCFYICGLGFY | inactive
RSFSNSDRMVSNLQFCYYFG | 2.77 ± 0.053
AGIRYTNYFSSMGSIGGDGV | inactive
TVLYWRLRQMMRFRLFSSNW | inactive
TMHGAQFCD | inactive

Substance | amyloid nucleation score
KGNRFPRVLGIMFAFLFGSE | inactive
MVNLSLCLNVVAEGLNFDRF | 1.66 ± 0.091
IYNVFDDEDMICTSLVVSRS | inactive
RVPYFYFPPLR | inactive
GIQIYAMFTFSKSFMLGNWY | inactive
IVKNDGNGHLLYTLCVFRFW | inactive
AIERIFHCGETVIFMTGHLL | inactive
ELGPYLNSLVAHFSRLY | inactive
WVLEE | inactive
GVKCPKKTNRQWGIVALMRP | inactive
RSIVNSRALGLAADRRLEFS | inactive
YYTFSVHSYGEFMRCLFIQH | inactive
SYAPKMSIRGMNFKTVMVFL | 2.37 ± 0.076
ARRGLPVARIIFSHDPNL | inactive
VIYVKSIMSFSLCDFDY | 3.11 ± 0.074
VSWHNILMWTRTPL | inactive
LMRTDNSSKNGSASGGGMSG | inactive
NSSCSCTCLLSGHRHTP | 0.829 ± 0.24
CLLNGDLHVEGWTLV | inactive
SLSYTRCCQNTILIKRYGLE | inactive
ESMSHRGAPGRERVLRSNM | inactive
ANCVALTIVSYQVARDMKSK | 1.36 ± 0.087
SFYGSIQGQNLLTLLNMKTR | inactive
SYRYNRLYHWVHDLLCSTLV | inactive

Substance | amyloid nucleation score
TSINFSMAIDLRSHQLERTV | 0.479 ± 0.31
FAYQFRLVDTSLSDF | inactive
CPVLGCMSTGEYHCFLTQTY | inactive
KVLQPANVLRLTGFVSVRGV | inactive
QNHSNVGTFDDSA | inactive
LMGTSIPSKQADLGTEFSNF | inactive
TALGSDMTYITARRI | 0.671 ± 0.15
SVQLGIKNVITLRSYVYKTW | -0.208 ± 0.6
FSWMC | inactive
NWYLALSGLVLSPYRGIRSG | inactive
AWLSLVCVDVGTTPFSHNDR | inactive
MYWWRFVGLQSIYSGQLCKR | inactive
FFRRSRYEYKSFGVNNVMNG | inactive
LMYRYVTLNAFRESISYISS | inactive
CLYFY | 1.93 ± 0.1
CFSYGMWNSLPRWLALN | inactive
GLMLDFILYQWTWYKLSMDT | inactive
LGLECVGPFCKGVYFWLDG | inactive
SAGTLGGYDFVYVAVDSLHR | inactive
LSLVQGR | inactive
YCQVGINWFYGAGMKGYILS | inactive
MLAVRMVDTPSSCQRIKPDN | inactive
HFAYRFCYLANRRRDVYRSA | inactive
SGSDILISYLLFCYNACLTF | inactive

Substance | amyloid nucleation score
FLTHVHQINADAFYAIL | 1.84 ± 0.11
VCNYEVVAVIRDE | inactive
RRTDGATEACISTSGPEYIV | inactive
MRHVCSCFRNDHGIDGVF | 0.06 ± 0.44
DYVIVCAMEKLNRTVLWAQG | inactive
MPKAGVSTVSLSHRKVLTLP | 0.174 ± 1
VRCSR | inactive
VYYKVKEHVGWVFVSVVCIV | inactive
SMCPPLQRG | inactive
VVDKILITINRSLLLSGADN | inactive
SGMLKLSWVVW | 0.667 ± 0.22
GHLSIHREGFNLVSHLCANF | inactive
VYLHYLTREVSDYLMWWFRV | inactive
LSSFHHRQVLHRAVAKPFTA | 0.245 ± 0.75
KCWPIVCNLWNREWQCSLIR | inactive
AMNNAGSGKQEYNRYGEIIN | inactive
FMSFLICNRILWSGG | inactive
LRVFWRTFCVSWSECNKMLE | inactive
RPYHSEKYDKFVDAMSFWCW | inactive
FVPFERNKMIMKRICEVCVA | 0.97 ± 0.11
LCTNLYWVQFIMEPEEGVIQ | 1.54 ± 0.082
NCIYLVLN | inactive
VNCTNLRKPLQLTQ | inactive
TLFQSFRELLRNGVFCLRTM | inactive

Substance | amyloid nucleation score
DFYIGTGLISKVRLGHRCSC | -0.305 ± 0.44
DTDFIFVNIA | inactive
LNMHFENTIRGVPYTLVSGR | inactive
FWSLNIQGSNYFLHIVNIGR | inactive
NLWYAFMSFVVNDGHIRLGR | 1.1 ± 0.11
NSIAYMVWILALDCCNWGSQ | 2.85 ± 0.07
MYYAN | inactive
CVVIFICPQKG | 0.811 ± 0.26
ENSEW | inactive
EYESMI | inactive
NNRFTGILPVWTMHE | inactive
FTRYRNVFKWTMWFSYFWQA | inactive
SADITSTLGRYAFYF | inactive
RFYVYIINHHAPVYWVSRYS | 2.59 ± 0.065
LLVLPGGVSGVNLRDEWTDF | inactive
TLCQREPG | 0.209 ± 0.71
LMNYRMGWWFVCENYNEML | 0.571 ± 0.17
GVYMLLDVPYGTASTSAMGS | inactive
TCFESLGLDVPIPYNRWVRS | inactive
IMNHLLSRVVCFLDKIVHMG | inactive
